pKi: −log10 of the molar value.
Assays:
[1] = biological target: human plasma kallikrein (Homo sapiens, UniProt P03952); experiment: DX-88 inhibition of human plasma kallikrein; format: biochemical
[2] = Serum half-time of DX-88; settings: in vivo
[3] = DX-88 tested in the clinic for treatment of hereditary angioedema (HAE); format: in vivo, human
[4] = biological target: T1, human neutrophil elastase (Homo sapiens, UniProt P08246); settings: Table 4, Biological Activity; read-out: Inhibition of human neutrophil elastase, Ki; cited from earlier work
T1 sequence (P08246 30-267): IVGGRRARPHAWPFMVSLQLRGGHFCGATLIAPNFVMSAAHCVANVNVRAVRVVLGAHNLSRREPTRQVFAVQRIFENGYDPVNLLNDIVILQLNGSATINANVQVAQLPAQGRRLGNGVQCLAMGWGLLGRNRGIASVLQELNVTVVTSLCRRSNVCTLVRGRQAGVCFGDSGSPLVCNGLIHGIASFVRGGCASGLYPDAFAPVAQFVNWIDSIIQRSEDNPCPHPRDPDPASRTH

[5] = Pharmacokinetic study in rabbits: plasma clearance of 125I-labeled protein, SEC of plasma
Source text: (§1) After radiolabeling, the two labeled protein preparations were purified from unbound label by size exclusion chromatography (SEC). Fractions from the SEC column having the highest radioactivity were pooled. The purified, radiolabeled preparations were characterized for specific activity by scintillation counting and for purity by SEC using a Superose-12 column equipped with an in-line radiation detector.
(§2) New Zealand White rabbits (ca. 2.5 Kg) were used for clearance measurements, with one animal each used for of the two labeled protein preparations. The radiolabeled preparation was injected into the animal via an ear vein. One blood sample was collected per animal per time point with early time points at approximately 0, 7, 15, 30, and 90 minutes and later time points at 4, 8, 16, 24, 48, 72, 96, 144, 168, and 192 hours. Samples (about 0.5 ml) were collected into anticoagulant (EDTA) tubes. Cells were separated from the plasma/serum fraction by centrifugation. The plasma fraction was divided into two aliquots. One plasma aliquot was stored at −70° C. and the other aliquot was kept at 4° C. for immediate analyses. Sample analyses included radiation counting for clearance rate determinations and SEC chromatography for in vivo stability.

[6] = rabbit, in vivo
Source text: as §1, §2

[7] = system: Pseudomonas aeruginosa; settings: rat model of CF, after seven days of treatment (Cantin and Woods 1999); cited from earlier work
[8] = about 840 mg BPTI, 80 open-heart surgery patients (Fraedrich et al.); cited from earlier work

human plasma kallikrein, sequence (P03952 391-638 limits assumed): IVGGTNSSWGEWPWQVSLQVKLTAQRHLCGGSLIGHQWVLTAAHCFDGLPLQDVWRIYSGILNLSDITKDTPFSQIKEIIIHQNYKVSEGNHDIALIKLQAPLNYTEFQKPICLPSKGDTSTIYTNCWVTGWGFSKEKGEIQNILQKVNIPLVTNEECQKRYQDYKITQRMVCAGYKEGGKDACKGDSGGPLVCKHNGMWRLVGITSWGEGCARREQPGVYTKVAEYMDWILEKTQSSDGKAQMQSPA
human plasma kallikrein, sequence (P03952 20-390 partner limits assumed): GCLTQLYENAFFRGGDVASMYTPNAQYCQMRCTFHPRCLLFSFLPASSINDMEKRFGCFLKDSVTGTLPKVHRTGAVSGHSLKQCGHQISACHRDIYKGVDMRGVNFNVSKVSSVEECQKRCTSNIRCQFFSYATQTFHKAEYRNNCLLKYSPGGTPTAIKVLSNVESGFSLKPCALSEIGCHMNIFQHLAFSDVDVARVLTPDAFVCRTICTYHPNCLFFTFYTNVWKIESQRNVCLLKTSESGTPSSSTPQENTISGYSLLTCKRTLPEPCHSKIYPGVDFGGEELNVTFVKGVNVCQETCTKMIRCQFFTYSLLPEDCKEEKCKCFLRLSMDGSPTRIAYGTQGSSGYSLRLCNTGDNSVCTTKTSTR

With “DX-88: Kunitz domain derived from the first Kunitz domain of human LACI, inhibits human plasma kallikrein, SEQ ID NO:48 (EAMHSFCAFKADDGPCRAAHPRWFFNIFTRQCEEFIYGGCEGNQNRFESLEECKKMCTRD; Description of Sequence DX-88 Kunitz domain peptide)” the pKi [1] was roughly 10.40, the serum half-time [2] was “not more than 1 hour” and the “initial clinical data in HAE” value [3] was “safe and effective”.

In the case of “DX-890: Kunitz domain peptide, inhibitor of human neutrophil elastase, SEQ ID NO:20 (EACNLPIVRGPCIAFFPRWAFDAVKGKCVLFPYGGCQGNGNKFYSEKECREYCGVP; Description of Sequence DX-890 Kunitz domain peptide)”, the pKi [4] is listed as roughly 11.30, the “in vivo stability by SEC analysis of plasma” value ([5]; FIG. 6) is listed as “relatively rapid association of label with higher molecular weight plasma components” and the T1/2β ([5]; restated in hours) is listed as 2.75 h. The “% α” value [6] was 75% and the “% β” value [6] was 25%.

For alpha1 antitrypsin, the bacterial counts [7] is given as 0.2±0.4.

In the case of “bovine pancreatic trypsin inhibitor [BPTI]”, the “decrease of mean amount transfused” value [8] is given as 74% and the “reduction of blood loss” value [8] is given as “almost half”.

— patent US20110092413A1, “Albumin-Fused Kunitz Domain Peptides” (Novozymes Biopharma DK A/S, priority 2002, published 2011)
